# In article PMC9595563:
# Molecular target: SARS-CoV-2 spike protein (Wuhan-Hu-1) with C-terminal histidine, coated in the ELISA of Fig 2C (SARS-CoV-2) (UniProt P0DTC2)
# Test: ELISA
# Chain of LRRC15-Fc (Q8TF66 22-538): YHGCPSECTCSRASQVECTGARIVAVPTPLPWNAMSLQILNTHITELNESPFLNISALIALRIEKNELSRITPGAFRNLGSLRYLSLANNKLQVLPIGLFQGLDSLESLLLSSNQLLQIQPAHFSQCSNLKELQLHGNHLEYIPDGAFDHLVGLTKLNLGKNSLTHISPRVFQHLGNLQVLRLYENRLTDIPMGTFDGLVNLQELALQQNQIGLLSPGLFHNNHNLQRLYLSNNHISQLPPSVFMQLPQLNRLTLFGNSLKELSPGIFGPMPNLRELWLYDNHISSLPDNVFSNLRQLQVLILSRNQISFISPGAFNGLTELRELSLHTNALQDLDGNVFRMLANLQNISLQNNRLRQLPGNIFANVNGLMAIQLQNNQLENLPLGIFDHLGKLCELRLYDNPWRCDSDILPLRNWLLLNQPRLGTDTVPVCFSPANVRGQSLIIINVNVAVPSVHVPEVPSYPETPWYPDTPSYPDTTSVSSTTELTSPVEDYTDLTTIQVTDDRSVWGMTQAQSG
substance,measurement,value
LRRC15-Fc (from UniProt Q8TF66) (Fc fusion),Kd,109 nM
